Values joined by “and” are separate entries in the source; they are usually repeats but may differ in a detail not shown here. Identical values can stand only once. “Also recorded” adds a separate entry of the source.
Tests used:
Type in all cases: biochemical
[1] = PCR with all four dNTPs replaced by αS dNTPs; conditions: 50 cycle PCR, 50 μM αS dNTPs
Procedure: (§1) A PCR assay was used to screen and rank clones. Briefly, clones were normalized for activity in PCR with matched primers 3, 4 and activity with mismatched primers 1 and 2 (1 μM each) determined at minimal cycle number (15-25 cycles). Extension capability for different mismatches was determined by the same assay using mismatch primers 2 (C•C mismatch), 5 (A•A mismatch), 6 (G•G mismatch), 7 (G•A mismatch) with matched primer 3 or primer 1 (A•G mismatch) with matched primer 4. Incorporation of unnatural substrates in 50 cycle PCR was carried out using standard conditions and 50 μM […] dNTPs (Promega) or 50 μM FITC-12-dATP (Perkin-Elmer), Rhodamine-5-dUTP (Perkin-Elmer) or Biotin-16-dUTP (Roche) with equivalent amounts of the other 3 dNTPs (all 50 μM). Long PCR was carried out using a two-step cycling protocol as described (22) 94° C. for 2 minutes, followed by 20 cycles of (94° C. 15 sec, 68° C. 30 min) using 5 ng of phage λ DNA (New England Biolabs) template and either primers 9, 10, 11 with primer 12 or primer 13 with primers 10, 14.

[2] = test system: primers with 3′ transversion mismatches; assay: Mismatch extension PCR assay; conditions: G•A, C•C, G•G mismatched primers
Procedure: as §1

[3] = test system: primer-template duplex, correct or incorrect incoming dNTP; assay: Steady-state single nucleotide incorporation kinetics, gel-based assay
Procedure: (§2) Kinetic parameters were determined using a gel-based assay essentially as described (16). Primers 15, 16, 17 (3′ base=G, C, A respectively) were ^32P-labeled and annealed to one of template strands 18, 19, 20 (template base=C, G, A respectively) or 21 (template base C different context). Duplex substrates were used at 50 nM final concentration in 1× Taq buffer with various concentrations of enzyme and dNTP. Reactions were carried out at 60° C. for times whereby <20% of primer-template was utilized at the highest concentration of dNTP.
(§3) Extension and incorporation kinetics of M1 and M4 for a selection of mismatches were measured using a gel-based steady-state kinetic assay (Goodman) (Tables 1 & 2). M1 and M4 respectively extend a C•C mispair 390 and 75-fold more efficiently than wtTaq. […] The gain in extension efficiency derives predominantly from increased relative Vmax values for the mutant polymerases, while Km for nucleotide substrates remains largely unchanged. For most DNA polymerases the relative efficiency of extending a given mispair (f0ext) is similar to the relative efficiency of forming it (finc) (Goodman 1993, Goodman 1990, Washington 2001). Indeed, M1 and M4 respectively incorporate dCTP opposite template base C 206- and 29-fold more efficiently than wtTaq (Table 2).

[4] = test system: primer-template duplex with matched or mismatched 3′ terminus; assay: Steady-state extension kinetics, gel-based assay; conditions: incorporated base is dCTP
Procedure: as §2, §3

[5] = test system: template containing a cis-syn cyclobutane thymine-thymine dimer (CPD); assay: Translesion replication assay (primer extension), CPD; conditions: gel-extension assay, 60° C.
Procedure: Template primers 22 (undamaged) or 23 (containing a synthetic abasic site) were synthesized by Lofstrand Laboratories (Gaithersburg, Md.). Template primer 24 (containing a single cis-syn thymine dimer), was synthesized as described (34). Primer 25 was ^32P-labeled and annealed to one of the three templates 22, 23, 24 (at a primer template ratio of molar 1:1.5) and extended in 40 mM Tris.HCl at pH 8.0, 5 mM MgCl2, 100 μM of each dNTP, 10 mM DTT, 250 μg/ml BSA, 2.5% glycerol, 10 nM primer-template DNA and 0.1 Unit of polymerase at 60° C. for various times.
Primer extension assays were essentially as described in (Ghadessy et al., 2004). Briefly, undamaged oligonucleotides and a 51mer containing a synthetic abasic site were synthesized by Lofstrand Laboratories (Gaithersburg, Md.) using standard techniques and were gel purified prior to use. A 20mer primer (LES—20 P) with the sequence 5′-[…]-3′ (SEQ ID NO: 99) was 5′-labeled with [^32P]ATP (5000 Ci/mmole; 1 Ci=37 GBq) (Pharmacia) using T4 polynucleotide kinase (Invitrogen, Carlsbad Calif.). Radiolabeled primer-template DNAs were prepared by annealing the 5′[^32P] labeled 20mer primer to one of the two following 51mer templates (at a primer template ratio of molar 1:1.5). 1) undamaged DNA (UNDT51T); 5′-AGCTACCATGCCTGCACGAATTCGGCATCCGTCGCGACCACGGTCGCAGCG-3′ (SEQ ID NO: 100); 2) an oligo (LABA51T) containing a synthetic abasic site (indicated as an X in bold font); 5′-AGCTACCATGCCTGCACGACA XCG GCATCCGTCGCGACCACGGTCGCAGCG-3′ (SEQ ID NO: 101). Standard replication reactions of 10 contained 40 mM Tris.HCl at pH 8.0, 5 mM MgCl2, 100 μM of each ultrapure dNTP (Amersham Pharmacia Biotech, NJ), 10 mM DTT, 250 μg/ml BSA, 2.5% glycerol, 10 nM 5′[32P] primer-template DNA and 0.1 Unit of polymerase. After incubation at 60° C. for various times reactions were terminated by the addition of 10 μl of 95% formamide/10 mM EDTA and the samples heated to 100° C. for 5 min. Reaction mixtures (5 μl) were subjected to 20% polyacrylamide/7 M Urea gel electrophoresis and replication products visualized by PhosphorImager analysis.

[6] = 3′-terminal base pair C · G (template base: 3′ primer base), matched

B1: M1: Taq mutant G84A, D144G, K314R, E520G, F598L, A608V, E742G; SEQ ID NO: 1 (protein)
chain: MRGMLPLFEPKGRVLLVDGHHLAYRTFHALKGLTTSRGEPVQAVYGFAKSLLKALKEDGDAVIVVFDAKAPSFRHEAYGGYKAARAPTPEDFPRQLALIKELVDLLGLARLEVPGYEADDVLASLAKKAEKEGYEVRILTADKGLYQLLSDRIHVLHPEGYLITPAWLWEKYGLRPDQWADYRALTGDESDNLPGVKGIGEKTARKLLEEWGSLEALLKNLDRLKPAIREKILAHMDDLKLSWDLAKVRTDLPLEVDFAKRREPDRERLRAFLERLEFGSLLHEFGLLESPKALEEAPWPPPEGAFVGFVLSRREPMWADLLALAAAAGGRVHRAPEPYKALRDLKEARGLLAKDLSVLALREGLGLPPGDDPMLLAYLLDPSNTTPEGVARRYGGEWTEEAGERAALSERLFANLWGRLEGEERLLWLYREVERPLSAVLAHMEATGVRLDVAYLRALSLEVAEEIARLEAEVFRLAGHPFNLNSRDQLERVLFDELGLPAIGKTEKTGKRSTSAAVLGALREAHPIVEKILQYRELTKLKSTYIDPLPDLIHPRTGRLHTRFNQTATATGRLSSSDPNLQNIPVRTPLGQRIRRAFIAEEGWLLVVLDYSQIELRVLAHLSGDENLIRVFQEGRDIHTETASWMFGVPREAVDPLMRRAAKTINFGVLYGMSAHRLSQELAIPYEEAQAFIERYFQSFPKVRAWIEKTLEEGRRRGYVETLFGRRRYVPDLEARVKSVRGAAERMAFNMPVQGTAADLMKLAMVKLFPRLEEMGARMLLQVHDELVLEAPKERAEAVARLAKEVMEGVYPLAVPLEVEVGIGEDWLSAKE
modifications: Mutant Thermus aquaticus DNA polymerase
size of PCR products with all four αS dNTPs [1]: up to 2 kbp | extension of 3′ transversion mismatches in PCR [2]: greatly increased ability to extend; also recorded: generate amplification products | Km ([3]; base pair C: dCTP): 264 µM | Ratio of finc, finc (mutant polymerase)/finc (wtTaq) ([3]; base pair C: dCTP): 206 and 206.74 | finc, f (incorrect dNTP)/f (correct dNTP) ([3]; base pair C: dCTP): 7.97 × 10^−6 | Vmax ([3]; base pair C: dCTP (template base: incoming nucleotide)): 6.08 % Min^−1 | Vmax ([3]; base pair C: dGTP (template base: incoming nucleotide), correct dNTP): 111.66 % Min^−1 | Km ([3]; base pair C: dGTP, correct dNTP): 0.0387 µM | Km ([3]; base pair G: dATP): 257 µM | Ratio of finc, finc (mutant polymerase)/finc (wtTaq) ([3]; base pair G: dATP): 2.08 | finc, f (incorrect dNTP)/f (correct dNTP) ([3]; base pair G: dATP): 1.72 × 10^−4 | Vmax ([3]; base pair G: dATP (template base: incoming nucleotide)): 681.82 % Min^−1 | Vmax ([3]; base pair G: dCTP (template base: incoming nucleotide), correct dNTP): 308 % Min^−1 | Km ([3]; base pair G: dCTP, correct dNTP): 0.02 µM | Km ([3]; base pair G: dGTP): 377 µM | Ratio of finc, finc (mutant polymerase)/finc (wtTaq) ([3]; base pair G: dGTP): 21.88 | finc, f (incorrect dNTP)/f (correct dNTP) ([3]; base pair G: dGTP): 3.72 × 10^−5 | Vmax ([3]; base pair G: dGTP (template base: incoming nucleotide)): 215.98 % Min^−1 | Km ([3]; base pair G: dTTP): 1.65 µM | Ratio of finc, finc (mutant polymerase)/finc (wtTaq) ([3]; base pair G: dTTP): 2.43 | finc, f (incorrect dNTP)/f (correct dNTP) ([3]; base pair G: dTTP): 4.01 × 10^−4 | Vmax ([3]; base pair G: dTTP (template base: incoming nucleotide)): 10.19 % Min^−1 | Vmax ([4]; 3′-terminal base pair A · A (template base: 3′ primer base)): 1.5 % Min^−1 | Km ([4]; 3′-terminal base pair A · A): 40.9 µM | Ratio of fext, fext (mutant polymerase)/fext (wtTaq) ([4]; 3′-terminal base pair A · A): 3.6 | fext, f (mismatched 3′terminus)/f (matched terminus) ([4]; 3′-terminal base pair A · A): 2.4 × 10^−6 | Vmax ([4]; 3′-terminal base pair A · G (template base: 3′ primer base)): 44.6 % Min^−1 | Km ([4]; 3′-terminal base pair A · G): 280 µM | Ratio of fext, fext (mutant polymerase)/fext (wtTaq) ([4]; 3′-terminal base pair A · G): 6.2 | fext, f (mismatched 3′terminus)/f (matched terminus) ([4]; 3′-terminal base pair A · G): 1.3 × 10^−6 | Vmax ([4]; 3′-terminal base pair C · C (template base: 3′ primer base)): 9.2 % Min^−1 | Km ([4]; 3′-terminal base pair C · C): 25.8 µM | Ratio of fext, fext (mutant polymerase)/fext (wtTaq) ([4]; 3′-terminal base pair C · C): 390 | fext, f (mismatched 3′terminus)/f (matched terminus) ([4]; 3′-terminal base pair C · C): 2.3 × 10^−5 | Km [4, 6]: 0.02 µM | Vmax [4, 6]: 308.0 % Min^−1 | Vmax ([4]; 3′-terminal base pair G · A (template base: 3′ primer base)): 2.4 % Min^−1 | Km ([4]; 3′-terminal base pair G · A): 22 µM | Ratio of fext, fext (mutant polymerase)/fext (wtTaq) ([4]; 3′-terminal base pair G · A): 13.3 | fext, f (mismatched 3′terminus)/f (matched terminus) ([4]; 3′-terminal base pair G · A): 7.2 × 10^−6 | Vmax ([4]; 3′-terminal base pair G · G (template base: 3′ primer base)): 29.6 % Min^−1 | Km ([4]; 3′-terminal base pair G · G): 67 µM | Ratio of fext, fext (mutant polymerase)/fext (wtTaq) ([4]; 3′-terminal base pair G · G): 22.5 | fext, f (mismatched 3′terminus)/f (matched terminus) ([4]; 3′-terminal base pair G · G): 2.9 × 10^−5 | CPD bypass in primer extension [5]: able to readily extend all of the primer to the 3′T of the dimer

— patent US9096835B2, “DNA polymerase” (Medical Research Council, priority 2003, dated 2015)
